The results in this text go back to FireProtDB (doi:10.1021/bi9910169).

Sequences and labels used below:
B1: Lysozyme C, P61626 (parent)
chain: MKALIVLGLVLLSVTVQGKVFERCELARTLKRLGMDGYRGISLANWMCLAKWESGYNTRATNYNAGDRSTDYGIFQINSRYWCNDGKTPGAVNACHLSCSALLQDNIADAVACAKRVVRDPQGIRAWVAWRNRCQNRDVRQYVQGCGV

In the first data set the parent is B1. The following applies: Homo sapiens; pH 2.5; Thermal; DSC; glycine-HCl 0.05 M; reversible: yes; structure 1LZ1; whole UniProt chain shown.
Regarding T70V, the Tm (usually the temperature at which the thermal transition is half complete) worked out at 58.8 °C, the “unfolding enthalpy (calorimetric)” value is 98.7 kcal/mol and the “unfolding enthalpy (van 't Hoff)” value came to 104 kcal/mol.
T58V: the midpoint of thermal melting (Tm) came out at 57 °C, the “unfolding enthalpy (calorimetric)” value turned out to be 96.6 kcal/mol and the “unfolding enthalpy (van 't Hoff)” value is 104 kcal/mol.
Take T58A: the Tm was found to be 56.6 °C, the “unfolding enthalpy (calorimetric)” value worked out at 97.5 kcal/mol and the “unfolding enthalpy (van 't Hoff)” value was 103 kcal/mol.
For T88A, in that order: 57.3 °C, 98.5 kcal/mol and 99.9 kcal/mol.
For T88V, in that order: 59.5 °C, 102 kcal/mol and 106 kcal/mol.

Staying with this data set, now noted: Homo sapiens; pH 2.7; Thermal; DSC; glycine-HCl 0.05 M; reversible: yes; structure 1LZ1; whole UniProt chain shown.
For the variant T70V, the melting temperature (Tm) was determined as 62.1 °C, the “unfolding enthalpy (calorimetric)” value stood at 102 kcal/mol and the “unfolding enthalpy (van 't Hoff)” value is 107 kcal/mol.
For T70A, in that order: 61.9 °C, 103 kcal/mol and 109 kcal/mol.
For T58V, in that order: 59.2 °C, 93 kcal/mol and 99.9 kcal/mol.
For T58A, in that order: 59.4 °C, 99.9 kcal/mol and 102 kcal/mol.
Regarding T88A, the midpoint of thermal melting (Tm) worked out at 60 °C, the “unfolding enthalpy (calorimetric)” value was 101 kcal/mol and the “unfolding enthalpy (van 't Hoff)” value turned out to be 104 kcal/mol.
For T88V, in that order: 62.6 °C, 107 kcal/mol and 111 kcal/mol.

The data set is the same for the next values; noted with them: Homo sapiens; pH 2.85; Thermal; DSC; glycine-HCl 0.05 M; reversible: yes; structure 1LZ1; whole UniProt chain shown.
In the case of T70V, the Tm came out at 64.2 °C, the “unfolding enthalpy (calorimetric)” value came out at 105 kcal/mol and the “unfolding enthalpy (van 't Hoff)” value worked out at 110 kcal/mol.
For T70A, the Tm was determined as 64.4 °C, the “unfolding enthalpy (calorimetric)” value came out at 105 kcal/mol and the “unfolding enthalpy (van 't Hoff)” value is 112 kcal/mol.
For T58V, in that order: 63.2 °C, 110 kcal/mol and 113 kcal/mol.
Take T58A: the Tm was 63.3 °C, the “unfolding enthalpy (calorimetric)” value is 107 kcal/mol and the “unfolding enthalpy (van 't Hoff)” value was 114 kcal/mol.
Take T88A: the melting temperature (Tm) was 62.2 °C, the “unfolding enthalpy (calorimetric)” value was found to be 103 kcal/mol and the “unfolding enthalpy (van 't Hoff)” value was 106 kcal/mol.
For T88V, in that order: 65.3 °C, 112 kcal/mol and 117 kcal/mol.

Still in this data set, the particulars now being: Homo sapiens; pH 3; Thermal; DSC; glycine-HCl 0.05 M; reversible: yes; structure 1LZ1; whole UniProt chain shown.
With T70V, the melting temperature (Tm) turned out to be 66.6 °C, the “unfolding enthalpy (calorimetric)” value is 107 kcal/mol and the “unfolding enthalpy (van 't Hoff)” value is 113 kcal/mol.
Turning to T70A, the midpoint of thermal melting (Tm) turned out to be 66.9 °C, the “unfolding enthalpy (calorimetric)” value is 108 kcal/mol and the “unfolding enthalpy (van 't Hoff)” value is 114 kcal/mol.
For T58V, in that order: 66.3 °C, 112 kcal/mol and 119 kcal/mol.
As for T58A, the Tm was determined as 66.5 °C, the “unfolding enthalpy (calorimetric)” value stood at 114 kcal/mol and the “unfolding enthalpy (van 't Hoff)” value worked out at 117 kcal/mol.
For T88A, in that order: 64.7 °C, 107 kcal/mol and 110 kcal/mol.
For T88V, in that order: 67.6 °C, 115 kcal/mol and 121 kcal/mol.

The same data set, now with this note: Homo sapiens; pH 3.1; Thermal; DSC; glycine-HCl 0.05 M; reversible: yes; structure 1LZ1; whole UniProt chain shown.
For T70V, the melting temperature (Tm) amounted to 68.7 °C, the “unfolding enthalpy (calorimetric)” value came out at 111 kcal/mol and the “unfolding enthalpy (van 't Hoff)” value came out at 114 kcal/mol.
For T70A, in that order: 68.9 °C, 109 kcal/mol and 118 kcal/mol.
For T58V, in that order: 68.7 °C, 115 kcal/mol and 123 kcal/mol.
For T58A, in that order: 68.6 °C, 117 kcal/mol and 121 kcal/mol.
Turning to T88A, the Tm is 67.1 °C, the “unfolding enthalpy (calorimetric)” value turned out to be 110 kcal/mol and the “unfolding enthalpy (van 't Hoff)” value came out at 113 kcal/mol.
In the case of T88V, the melting temperature (Tm) was found to be 70.3 °C, the “unfolding enthalpy (calorimetric)” value was found to be 119 kcal/mol and the “unfolding enthalpy (van 't Hoff)” value is 123 kcal/mol.

The data set is the same for the next values; noted with them: Homo sapiens; pH 2.51; Thermal; DSC; glycine-HCl 0.05 M; reversible: yes; structure 1LZ1; whole UniProt chain shown.
T61V: the midpoint of thermal melting (Tm) was found to be 65 °C, the “unfolding enthalpy (calorimetric)” value turned out to be 99.9 kcal/mol and the “unfolding enthalpy (van 't Hoff)” value turned out to be 112 kcal/mol.
For T29V, in that order: 62.9 °C, 104 kcal/mol and 107 kcal/mol.

The data set is the same for the next values; noted with them: Homo sapiens; pH 2.71; Thermal; DSC; glycine-HCl 0.05 M; reversible: yes; structure 1LZ1; whole UniProt chain shown.
As to T61V, the Tm stood at 68.4 °C, the “unfolding enthalpy (calorimetric)” value came to 105 kcal/mol and the “unfolding enthalpy (van 't Hoff)” value was 114 kcal/mol.
For the variant T29V, the Tm turned out to be 66.2 °C, the “unfolding enthalpy (calorimetric)” value is 110 kcal/mol and the “unfolding enthalpy (van 't Hoff)” value stood at 112 kcal/mol.

The data set is the same for the next values; noted with them: Homo sapiens; pH 3.02; Thermal; DSC; glycine-HCl 0.05 M; reversible: yes; structure 1LZ1; whole UniProt chain shown.
Take T61V: the Tm was 73 °C, the “unfolding enthalpy (calorimetric)” value turned out to be 108 kcal/mol and the “unfolding enthalpy (van 't Hoff)” value was 118 kcal/mol.
Regarding T29A, the Tm worked out at 71.4 °C, the “unfolding enthalpy (calorimetric)” value is 116 kcal/mol and the “unfolding enthalpy (van 't Hoff)” value came to 119 kcal/mol.

The data set is the same for the next values; noted with them: Homo sapiens; pH 3.2; Thermal; DSC; glycine-HCl 0.05 M; reversible: yes; structure 1LZ1; whole UniProt chain shown.
For the variant T61V, the Tm stood at 75.4 °C, the “unfolding enthalpy (calorimetric)” value came out at 113 kcal/mol and the “unfolding enthalpy (van 't Hoff)” value turned out to be 121 kcal/mol.

The data set is the same for the next values; noted with them: Homo sapiens; pH 2.54; Thermal; DSC; glycine-HCl 0.05 M; reversible: yes; structure 1LZ1; whole UniProt chain shown.
As for T61A, the melting temperature (Tm) stood at 61.1 °C, the “unfolding enthalpy (calorimetric)” value is 104 kcal/mol and the “unfolding enthalpy (van 't Hoff)” value is 105 kcal/mol.

The data set is the same for the next values; noted with them: Homo sapiens; pH 2.74; Thermal; DSC; glycine-HCl 0.05 M; reversible: yes; structure 1LZ1; whole UniProt chain shown.
Take T61A: the midpoint of thermal melting (Tm) came to 64.5 °C, the “unfolding enthalpy (calorimetric)” value came out at 108 kcal/mol and the “unfolding enthalpy (van 't Hoff)” value turned out to be 109 kcal/mol.
For T29A, the Tm came to 66.8 °C, the “unfolding enthalpy (calorimetric)” value was 112 kcal/mol and the “unfolding enthalpy (van 't Hoff)” value came to 115 kcal/mol.

The same data set, now with this note: Homo sapiens; pH 2.9; Thermal; DSC; glycine-HCl 0.05 M; reversible: yes; structure 1LZ1; whole UniProt chain shown.
For T61A, the melting temperature (Tm) is 67.1 °C, the “unfolding enthalpy (calorimetric)” value was 111 kcal/mol and the “unfolding enthalpy (van 't Hoff)” value was found to be 112 kcal/mol.

The same data set, now with this note: Homo sapiens; pH 2.81; Thermal; DSC; glycine-HCl 0.05 M; reversible: yes; structure 1LZ1; whole UniProt chain shown.
As for T29V, the melting temperature (Tm) was 68.7 °C, the “unfolding enthalpy (calorimetric)” value was found to be 114 kcal/mol and the “unfolding enthalpy (van 't Hoff)” value was determined as 117 kcal/mol.

The data set is the same for the next values; noted with them: Homo sapiens; pH 3.19; Thermal; DSC; glycine-HCl 0.05 M; reversible: yes; structure 1LZ1; whole UniProt chain shown.
Take T29V: the midpoint of thermal melting (Tm) came to 73 °C, the “unfolding enthalpy (calorimetric)” value was determined as 117 kcal/mol and the “unfolding enthalpy (van 't Hoff)” value is 121 kcal/mol.

Still in this data set, the particulars now being: Homo sapiens; pH 2.82; Thermal; DSC; glycine-HCl 0.05 M; reversible: yes; structure 1LZ1; whole UniProt chain shown.
Consider T29A, for which the midpoint of thermal melting (Tm) was found to be 68.5 °C, the “unfolding enthalpy (calorimetric)” value turned out to be 115 kcal/mol and the “unfolding enthalpy (van 't Hoff)” value is 116 kcal/mol.

Still in this data set, the particulars now being: Homo sapiens; pH 3.22; Thermal; DSC; glycine-HCl 0.05 M; reversible: yes; structure 1LZ1; whole UniProt chain shown.
As to T29A, the Tm came out at 73.4 °C, the “unfolding enthalpy (calorimetric)” value was 119 kcal/mol and the “unfolding enthalpy (van 't Hoff)” value turned out to be 120 kcal/mol.
